Activity (transposition frequency), activity (KmR colonies/pfu) and relative transposition activity (fold vs TnsABCwt+E) data for 2 substances are collected here from US6420524.

Assay in all cases: cell_activity
In data set [1] the test system is TnsA+TnsB+TnsC+TnsD+TnsE (Escherichia coli (Tn7)?). Conditions: mating-out assay; +/- 1.1e-4.
Data set [2] concerns TnsA+TnsB+TnsC A225V TnsC A225V (Escherichia coli (Tn7)?).
Data set [3] addresses TnsA+TnsB+TnsC (wild type) (Escherichia coli (Tn7)?) (UniProt P13988+P13989+P05846). Conditions: mating-out assay.
Data set [4] has as its system TnsA+TnsB+TnsC+TnsE (Escherichia coli (Tn7)?). The settings on record: lambda hop.
The subject of data set [5] is TnsA+TnsB+TnsC S401YΔ402 TnsC S401Y, Δ402 (Escherichia coli (Tn7)?). The settings on record: lambda hop; inhibited somewhat by TnsD.
Data set [6] deals with TnsA+TnsB+TnsC+TnsD (Escherichia coli (Tn7)?) (UniProt P13988+P13989+P05846+A0A0H2XLP6). The settings on record: lambda hop.

For the substance pOX-G conjugable target plasmid, the activity (transposition frequency) in data set [1] is 0.00055; in data set [2] (mating-out assay, +/- 8.1e-6), 8.8e-06; in data set [3], less than 1e-07.
Turning to “E. coli chromosome target (miniTn7-KmR from lambda KK1)”, the figures for the activity (KmR colonies/pfu) in data set [4] and in data set [6] were 2.2e-07 and 0.00018, respectively. Also, the relative transposition activity (fold vs TnsABCwt+E) in data set [2] (lambda hop, stimulated 500-fold by TnsD+attTn7) is 8; in data set [5], 50.
